Consider 41 sequences from the nanobody polyreactivity screen of Harvey et al. (2022).

A short description of this series: yeast display, Sf9 membrane polyspecificity reagent, FACS + sequencing; frameworks hold sequencing errors. A digest of the protocol: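 Nanobodies from a synthetic yeast display library (Saccharomyces cerevisiae BJ5465), induced 36–48 hours with galactose, were stained 1 hour at 4 °C with 10% biotinylated, detergent-solubilized Sf9 membrane reagent, enriched on streptavidin microbeads, then FACS-sorted. Anti-HA (expression) and streptavidin (reagent binding) fluorescence set low and high (top ~1%) gates. Polyreactivity labels come from the gate of origin. Genes were colony-PCR amplified, MiSeq 2 × 250 sequenced and filtered by CDR length.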
On to “QVQLVESGGGLVQAGGSLRLSCAASGIIFAIYAMGWYRQAPGKERELVAAITWRGGSTYYADSVKGRFTISRDNAKNTVYLQMNSLKPEDTAVYYCAAVTKSLYGYDYWGQGSQVTVSS”, for which the “polyreactivity (PSR sort gate)” value is listed as “low polyreactivity”.

Consider “QVQLVESGGGLVQAGGSLRLSCAASGIIFAKYAMGWYRQPPGKERELVASISRPGGSTYYADSVKGRFTISRDNAKNTVYLQMNSLKPEDTAVYDCNAPGLRDYDAEYDYWGQGTQVTVSS”, for which the “polyreactivity (PSR sort gate)” value is “high polyreactivity”.

Regarding “QVQLVESGGGLVQAGGSLRLSCAASGIIFANNAMGWYRQAPGKERELVARISRSGGGTYYADSVKGRFTISRDNAKNTVYLQMNSLKPEDTAVYYCNAESSYYYGTAAYEYWGQGTQVTVSS”, the “polyreactivity (PSR sort gate)” value was “low polyreactivity”.

In the case of “QVQLVESGGGLVQAGGSLRLSCAASGIIFANYAMGWYRQAPGKERELVAAITYSGGGTYYADSVKGRFTISRDNAKNTVYLQMNSLKPEDTAVYYSAAEYFYRWYYFPYGYWGQGTQVTVSS”, the “polyreactivity (PSR sort gate)” value is “high polyreactivity”.

For “QVQLVESGGGLVQAGGSLRLSCAASGIIFARNAMGWYRQAPGKERELVATISRNGGRTYYADSVKGRFTISRDNAKNTVYLQMNSLKPEDTAVYYCAAGFYLRAVWMDYWGQGTQVTVSS”, the “polyreactivity (PSR sort gate)” value is “high polyreactivity”.

As for “QVQLVESGGGLVQAGGSLRLSCAASGIIFASNAMGWYRQAPGKERELVAAISGSGGRTYYADSVKGRFTISRDTAKNTVYLQMNSLKPEDTAVYYCAAARANNYDYWGQGTQVTVSS”, the “polyreactivity (PSR sort gate)” value is “high polyreactivity”.

In the case of “QVQLVESGGGLVQAGGSLRLSCAASGIIFATYAMGWYRQAPGKERELVASISTGDSTNYADSVKGRFTISRDNAKNTVYLQMNSLKPEDTAVYYCNADSYPYYVYGSNDYWGQGTQVTVSS”, the “polyreactivity (PSR sort gate)” value was “low polyreactivity”.

For the sequence “QVQLVESGGGLVQAGGSLRLSCAASGIIFAWYAMGWYRQAPGKERELVAAISGRGGRTYYADSVKGRFTISRDNAKNTVYLQMNSLKPEDTPVYYCNKDKSVIYDYWGQGTQVTVSS”, the “polyreactivity (PSR sort gate)” value is given as “high polyreactivity”.

Regarding “QVQLVESGGGLVQAGGSLRLSCAASGIIFAYAMGWYRQAPGKERELVAAISGRDGSTYYADSVKGRFTISRDNAKNTVYLQMNSLKPEDTAVYYCAKRISYLPVEMDYWGQGTQVTVSS”, the “polyreactivity (PSR sort gate)” value is “low polyreactivity”.

As to “QVQLVESGGGLVQAGGSLRLSCAASGIIFAYNAMGWYRQAPGKERELVAAISVIGGTTYYADSVKGRFTISRDNAKNTVYLQMNSLKPEDTAVYYCAVDSVQYGGGYERLHELYYWGQGTQVTVSS”, the “polyreactivity (PSR sort gate)” value is on record as “low polyreactivity”.

As for “QVQLVESGGGLVQAGGSLRLSCAASGIIFAYNTMGWYRQAPGKARELVAAITYRGGRTYYADSVKGRFRISRDNAKNTFYLQMNSLKPEDTAVYYCAAGRGVYSYGYNYWGHGTQVTVSS”, the “polyreactivity (PSR sort gate)” value is recorded as “high polyreactivity”.

In the case of “QVQLVESGGGLVQAGGSLRLSCAASGIIFAYYAMGRSRQAPGKEMEFVAGISCSGSSTNYADSVKGRFTISRDNAKNTVYFQMNSLKPEDTAVYYCAARSRRYHRTKPKYDYWGQGTQVTVSS”, the “polyreactivity (PSR sort gate)” value is listed as “high polyreactivity”.

Take “QVQLVESGGGLVQAGGSLRLSCAASGIIFAYYAMGWYRQAPGKERELVASISSGGTTKYADSVKGRFTISRDNAKNTVYLQMNSLKPEDTAVYYCAAEHRWRSWDMDYWGQGTQVTVSS”: the “polyreactivity (PSR sort gate)” value is listed as “low polyreactivity”.

With “QVQLVESGGGLVQAGGSLRLSCAASGIIFDDYAMGWYRQAPGKERELVAAITTSGGRTYYADSVKGRFTISRDNAKNTVYLQMNSLKPEDTAVYYCATRRGRAYRWMNYWGQGTQVTVSS”, the “polyreactivity (PSR sort gate)” value is “high polyreactivity”.

Take “QVQLVESGGGLVQAGGSLRLSCAASGIIFDEYAMGWYIQAPGKERELVAAITRDGGTNYADSVKGRFTISRDNAKNTVYLQMNSLKPEDTAVYYCAKRAYFYYGRYDYWGQGTQVTVSS”: the “polyreactivity (PSR sort gate)” value is “low polyreactivity”.

For “QVQLVESGGGLVQAGGSLRLSCAASGIIFDFYAMGWYRPAPGKERELVAAITSSGGSTYYADSVKGRFTISRDNAKNTVYLQMNSLKPEDTAVYYCAAEYTIYGTDQRYNYWGQGTQVTVSS”, the “polyreactivity (PSR sort gate)” value was “low polyreactivity”.

As to “QVQLVESGGGLVQAGGSLRLSCAASGIIFDPYAMGWYRQAPGKERELVADIDNASSTYYADSVKGRFTISRDNAKNTVYLQMNSLKPEDTAVYYCAADLWYGGEYWGQGTQVTVSS”, the “polyreactivity (PSR sort gate)” value is given as “low polyreactivity”.

On to “QVQLVESGGGLVQAGGSLRLSCAASGIIFDQNVMGWYRQAPGKERELVAAIRQTGGSTYYADSVKGRFTISRDNAKNTVYLQMNSLKPEDTAVYYCNAKPPGWFWGGFSYNRYYYWGQGTQVTVSS”, for which the “polyreactivity (PSR sort gate)” value is “low polyreactivity”.

For the sequence “QVQLVESGGGLVQAGGSLRLSCAASGIIFDTNAMGWYRPAPGKERELVAAITRSGGGTYYADSVKGRFSISRDNAKNTVYLQMNSLKPDDTAVYYCAARRQRDRYGYWGQGTQLTVSS”, the “polyreactivity (PSR sort gate)” value is listed as “high polyreactivity”.

“QVQLVESGGGLVQAGGSLRLSCAASGIIFDWYDMGWYRQAPGKERELVATITSDDGTNYADSVKGRFTIARDNAKNTVYFQLNSLKPEDTAVYYCAKRLIPSLPILQKMDYWGQGTQVTVSS”: the “polyreactivity (PSR sort gate)” value is “low polyreactivity”.

Take “QVQLVESGGGLVQAGGSLRLSCAASGIIFDYYAMGWYRQAPGKERELVASISWSGGGTYYADSVKGRFTISRDNAKNTVYLEMNSLKPEDTAVYYCAADGSTVNAPRWSDPYDYWGQGTQVTVSS”: the “polyreactivity (PSR sort gate)” value is given as “low polyreactivity”.

In the case of “QVQLVESGGGLVQAGGSLRLSCAASGIIFEFYAMGWYRQAPGKEREFVAAISKNGGRTYYADSVKGRFTISRDNAKTSVYLQLNSLKPEDTAVYYCDARYRPQANKYYYWGQGTQVTVSS”, the “polyreactivity (PSR sort gate)” value was “high polyreactivity”.

“QVQLVESGGGLVQAGGSLRLSCAASGIIFENYAMGWYRQAPGKERELVAAISAGGAITYYADSVKGRFTISRDNAKNTVYLQMNSLKPEDTAVYYCNAKSYRHLLYIPYKYNYWGQGTQVTVSS”: the “polyreactivity (PSR sort gate)” value is “high polyreactivity”.

On to “QVQLVESGGGLVQAGGSLRLSCAASGIIFEPNAMGWYRQAPGKERELVAAIDSGGITYYADSVKGRFTISRDNAKNTVYLQMNSLKPEDTAVYYCAAEAVVVTKYRYWTYGLYDYWGQGTQVTVSS”, for which the “polyreactivity (PSR sort gate)” value is recorded as “high polyreactivity”.

Take “QVQLVESGGGLVQAGGSLRLSCAASGIIFEPYAMGWYRQAPGKERELVASIRWSDGSTFYADSVKGRFTISRDNAKNTVYLQMNSLKPEDTAVYYCNAVYEHRRVGWVTIDYGYWGQGSQVTVSS”: the “polyreactivity (PSR sort gate)” value was “low polyreactivity”.

With “QVQLVESGGGLVQAGGSLRLSCAASGIIFESYSMGWYRQAPGKERELVAAISWDGGSTYYADSVKGRFTISRDNAKNTVYLQMNSLKPEDTAVYYCAAESYGIYDGYDYWGQGTQVTVSS”, the “polyreactivity (PSR sort gate)” value is listed as “high polyreactivity”.

With “QVQLVESGGGLVQAGGSLRLSCAASGIIFEYYAMGWYRQAPGKEWELVAAITDDGVVTYYGDSVKGRFTISRDNAKNTVYLQMNSLKPEDTAVYYCAAESYWTATYTYDYWGQGTQVTVSS”, the “polyreactivity (PSR sort gate)” value is “high polyreactivity”.

Take “QVQLVESGGGLVQAGGSLRLSCAASGIIFFLYAMGWYRQAPGKERELVAAISSGGSTYYADSVKGRFTISRDNAKNTVYLQMNSLKPEDTAVYYCAVVGYASRYEKYYYWGQGTQVTVSS”: the “polyreactivity (PSR sort gate)” value is “high polyreactivity”.

“QVQLVESGGGLVQAGGSLRLSCAASGIIFFRYAMGWYRQAPGKEREWVAGISGSGGSTYYADSVKGRFTMSRDNAKNTVYLQMNSLKPEDTAVYYCAKRYYRPVPGGYYWGQGTQVTVSS”: the “polyreactivity (PSR sort gate)” value is recorded as “high polyreactivity”.

Turning to “QVQLVESGGGLVQAGGSLRLSCAASGIIFGDKAMGWYRQAPGKERELVAAITIGGTSTYYADSVKGRFTISRDNAKNTVYLQMNRLKPEDTAVYYCAKTILYDCDYWGQGTQVTVSS”, the “polyreactivity (PSR sort gate)” value was “low polyreactivity”.

Consider “QVQLVESGGGLVQAGGSLRLSCAASGIIFGDNGMGWYRQAPGKERELVAVITSGDGTNYADSVKGRFTISRDNANNTFYLQMNSLKPEDTAVYYCAADFRIVVYGWGGSHMDYWGKGTQVTVSS”, for which the “polyreactivity (PSR sort gate)” value is listed as “low polyreactivity”.

Consider “QVQLVESGGGLVQAGGSLRLSCAASGIIFGGYAMGWYRQAHGKERELVARITSGGSTNYADSVKGRFTISRDNAKNTVYLQMNSLKPEDTAVYYCNARGGWSWRFYYWGQGTQVTVSS”, for which the “polyreactivity (PSR sort gate)” value was “high polyreactivity”.

In the case of “QVQLVESGGGLVQAGGSLRLSCAASGIIFGKNAMGWYRQAPGKERELVAAISRRGGGTYYADSVKGRFTISRDNAKNTVYLQMNSLKPEDTAVYYCAVKVGYVRLLYHYYYWGQGTQVTVSS”, the “polyreactivity (PSR sort gate)” value is given as “high polyreactivity”.

Turning to “QVQLVESGGGLVQAGGSLRLSCAASGIIFGPYAMGWYIQAPGKERELVAAITDGGITYYADSVKGRFTISRDNAKNTVYLQMNSLKPEDTAVYYCAAESGYPVYTYVSSGDYWGQGTQVTVSS”, the “polyreactivity (PSR sort gate)” value was “low polyreactivity”.

Take “QVQLVESGGGLVQAGGSLRLSCAASGIIFGRNTMGWYRPAPGKERELVAGISSNGGSTYYADSVKGRFTISRDNAKNTVYLQMNRLKPEDTAVYYCAAYYNIPDRRRVGYDYWGQGTQVTVSS”: the “polyreactivity (PSR sort gate)” value is recorded as “high polyreactivity”.

For the sequence “QVQLVESGGGLVQAGGSLRLSCAASGIIFGRYAMGWYRHAPGKERELVAAISTSGCSTYYADSVKGRFTISRDNAKTTVYLQMNSLKPEDTAVYYCAARHREAQRRYDYWGQGTQVTVSS”, the “polyreactivity (PSR sort gate)” value is listed as “high polyreactivity”.

Consider “QVQLVESGGGLVQAGGSLRLSCAASGIIFGRYAMGWYRQAPGKERELVAAITRSGGRTYYADSVKGRFTISRDNAKNTVYLQMNSLKPEDTAVYYCAADASGHSYDYWGQGTQVTVSS”, for which the “polyreactivity (PSR sort gate)” value was “high polyreactivity”.

“QVQLVESGGGLVQAGGSLRLSCAASGIIFGRYAMGWYRQAPGKERELVAVINWSGDSTYYADSVKGRFTISRDNAKNTVYLQMNSLKPEDTAVYYCAALNYKGRYRQYYWGQGTQVTVSS”: the “polyreactivity (PSR sort gate)” value is recorded as “high polyreactivity”.

Turning to “QVQLVESGGGLVQAGGSLRLSCAASGIIFGRYAMGWYTPAPGKERELVATISYRGGRTYYADSVKGRFTISRDNAKNTVYLQMNSLKPEDTAVYYCAAPHFSYSGGTHDYWGQGTQVTVSS”, the “polyreactivity (PSR sort gate)” value was “high polyreactivity”.

On to “QVQLVESGGGLVQAGGSLRLSCAASGIIFGRYTMGWYRQAPGKERELVAAITSSGITYYADSVKGRFTISRDNAKNTVYLQMHSLTPEDTAVYYCAADSPVSVTADDGYSGQGTQVTVSS”, for which the “polyreactivity (PSR sort gate)” value is listed as “low polyreactivity”.

On to “QVQLVESGGGLVQAGGSLRLSCAASGIIFGSNTMGWYRQAPGKERELVAAITSSDGSTHYADSVKGRFTISRDNAKNTVYLQMNTLKPEDTAVYYCAARKVTYGHSYGYDYWGQGTQVTVSS”, for which the “polyreactivity (PSR sort gate)” value is reported as “low polyreactivity”.
